Measurements published in article PMC7658014.

Target: T1, His6-OpaR (Vibrio parahaemolyticus (VP93?)) (UniProt Q79YV4)
T1 sequence: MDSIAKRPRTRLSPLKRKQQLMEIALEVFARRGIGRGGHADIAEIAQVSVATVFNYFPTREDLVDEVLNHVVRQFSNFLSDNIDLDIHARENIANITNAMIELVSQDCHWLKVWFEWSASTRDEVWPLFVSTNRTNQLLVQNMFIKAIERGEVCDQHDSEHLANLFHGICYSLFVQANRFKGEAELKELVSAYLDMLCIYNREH
Assay: EMSA
Settings: EMSA: 0.4 ng probe, 20 uL of 100 mM HEPES pH 7.6, 5 mM EDTA, 50 mM (NH4)2SO4, 5 mM DTT, 1% Tween 20, 150 mM KCl, 25 C, 30 min; footprinting: 75 ng probe, DIG …

For “GCGCCAAAATGGCATAGAAAGGTGAAGAATAGCATTACATTGAAAAATAACAAAAGGGCAGTGCGTGATCGCACTGCCCTTTTAATAATCAGATTGATAGTAAGATTAACTCTTCGAGCTTTATCACCAAGAGTGATGAATCAATCG (double strand) [degS P1]”, the binding was “binds”.
“GGTTTATCCTATAAATTGCGGATATTTTAAGAAATTAATATTCATTAAATTGATAACTGGCGACGGATCTTTATGATGACGGTTGATATGCCGATAGAGCACTCATTAGCCAGT (double strand) [lytM P1]” was tested, and the binding was “binds”.
